In patent US20150037339A1 (Regeneron, published 2015):

T1: Activin A (human, UniProt P08476 311-426)
T1 construct: Homodimer of two βA subunits; bought from R&D Systems (#338-AC); also called inhibin-βA dimer; human Activin A
T1 sequence: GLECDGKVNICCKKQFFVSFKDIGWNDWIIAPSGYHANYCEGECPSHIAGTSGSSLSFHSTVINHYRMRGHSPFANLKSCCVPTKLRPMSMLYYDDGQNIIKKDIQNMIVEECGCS

T2: Activin B (human, UniProt P09529 293-407)
T2 construct: Homodimer of two βB subunits; R&D Systems #659-AB
T2 chain: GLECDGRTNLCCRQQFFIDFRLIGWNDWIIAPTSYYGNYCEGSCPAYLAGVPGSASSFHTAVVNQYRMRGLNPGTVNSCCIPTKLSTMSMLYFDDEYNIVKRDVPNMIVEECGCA

B1: H4H10440P2 (antibody, human IgG4, V domains shown)
VH: EVQLVESGGGVVQPGGSLRLSCAASTFTFDDFAMHWVRQAPGKGLEWVSLITGDGGSTYYADPVKGRFTISRDNSKNSLYLQMNSLRTEDTALYYCVKDWWIAARPDYYYYGMDVWGQGTTVTVSS
VL: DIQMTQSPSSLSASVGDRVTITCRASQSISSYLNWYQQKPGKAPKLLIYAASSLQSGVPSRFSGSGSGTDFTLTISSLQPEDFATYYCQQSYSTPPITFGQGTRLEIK
B2: H4H10430P (antibody, human IgG4, V domains shown)
VH: EVQLVESGGGLVQPGRSLRLSCKASGFAFDDFAMHWVRQAPGKGLEWVSGIVWNSGDIGYADSVKGRFTISRDNAKNSLYLQLNSLRTEDTALYFCVKDMVRGLMGFNYYGMDVWGQGTTVTVSS
VL: EIVLTQSPATLSLSPGERATLSCRASQTISTYLVWYRQRPGQAPSLLIYDASNRATDIPARFSGSGSGTDFTLTISSLEPEDFAVYYCQQRSNWPITFGQGTRLEIK
notes: also called H4H1430P; H4H10430P2
B3: H4H10429P (antibody, human IgG4, V domains shown)
VH: QVQLVESGGGVVQPGRSLRLSCVASGFTVSSYGIHWVRQAPGKGLEWVSVIWYDGRNKDYADSVKGRFTISRDNSKNTVYLEMKGLRAEDTALYYCARDKTGDFDSWGQGTLVTVSS
VL: DIQMTQSPSSLSASVGDRVTITCRASQNINSFLSWYQQKPGKAPKFLIYDASSIQSGAPSRFSGSGSGTDFTLTISSLQPEDFATYYCQQSYSSPFTFGQGTKLEIK
B4: H4H10432P2 (antibody, human IgG4, V domains shown)
VH: EVQLVESGGGLVQPGRSLTLSCAVSGFTFDDHAMHWVRQAPGKGLEWVSGISWNSVSIGYADSVKGRFTISRDNAKTSLYLQMNSLRVDDTALYYCVQDLNDILTGYPLFDFWGQGTLVTVSS
VL: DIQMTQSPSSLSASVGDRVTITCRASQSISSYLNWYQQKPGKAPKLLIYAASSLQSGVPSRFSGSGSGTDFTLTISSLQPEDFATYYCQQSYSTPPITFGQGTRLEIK

Experiments:
Activin A [1] = target: T1, Activin A; assay: Octet cross-competition; binder on anti-hFc tip; 50 nM hActivin A pre-bound with 1 uM H4H10468P2 (col 2); white box
Protocol: (§1) No. 8,309,082) and Control 3 (MAB3381, available from R&D Systems, Inc., Minneapolis, Minn.) were also included in the assays. All assays were performed at 25° C. with a microtiter plate shaking rate of 1000 rpm in Octet HBST buffer (0.01 M HEPES pH7.4, 0.15M NaCl, 3 mM EDTA, 0.05% v/v Surfactant P20, 0.1 mg/mL BSA) according to manufacturer's instructions (ForteBio Corp., Menlo Park, Calif.). […] Any remaining anti-hFc binding sites on the tips were blocked by incubating the tips in a 50 ug/mL solution of irrelevant antibody for 5 minutes.

Activin A [2] = target: T1, Activin A; assay: Octet cross-competition; binder on anti-hFc tip; 50 nM hActivin A pre-bound with 1 uM H4H10436P2 (col 8); black box
Protocol: as §1

Activin B [3] = target: T2, Activin B; assay: SPR, captured mAb, 25C
How it was run: (§2)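 240 s association, 600 s buffer dissociation; ka, kd fitted; KD (M) = kd/ka; t1/2 (min) = ln2/(60*kd).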

Activin A [4] = target: T1, Activin A; assay: SPR, captured mAb, 25C
How it was run: as §2

Activin A [5] = target: T1, Activin A; assay: Octet cross-competition; binder on anti-hFc tip; 50 nM hActivin A pre-bound with 1 uM H4H10430P (col 5); black box
Protocol: as §1

Activin B [6] = target: T2, Activin B; assay: SPR, captured mAb, 37C
How it was run: as §2

Activin A [7] = target: T1, Activin A; assay: SPR, captured mAb, 37C
How it was run: as §2

Activin A [8] = target: T1, Activin A; assay: Octet cross-competition; binder on anti-hFc tip; 50 nM hActivin A pre-bound with 1 uM H4H10429P (col 6); black box
Protocol: as §1

Activin A [9] = target: T1, Activin A; assay: Octet cross-competition; binder on anti-hFc tip; 50 nM hActivin A pre-bound with 1 uM H4H10432P2 (col 7); black box
Protocol: as §1

Activin A [10] = target: T1, Activin A; assay: Octet cross-competition; binder on anti-hFc tip; 50 nM hActivin A mixed with 1 uM Isotype control 12 (-) (col 12); dark grey box
Protocol: as §1

Activin A [11] = target: T1, Activin A; assay: Octet cross-competition; binder on anti-hFc tip; 50 nM hActivin A pre-bound with 1 uM H4H10442P2 (col 3); white box
Protocol: as §1

Activin A [12] = target: T1, Activin A; assay: Octet cross-competition; binder on anti-hFc tip; 50 nM hActivin A pre-bound with 1 uM H4H10446P2 (col 1); white box
Protocol: as §1

Activin A [13] = target: T1, Activin A; assay: Octet cross-competition; binder on anti-hFc tip; 50 nM hActivin A pre-bound with 1 uM Control 1 (col 10); black box
Protocol: as §1

Activin A [14] = target: T1, Activin A; assay: Octet cross-competition; binder on anti-hFc tip; 50 nM hActivin A mixed with 1 uM Isotype control 13 (-) (col 13); dark grey box
Protocol: as §1

Activin A [15] = target: T1, Activin A; assay: Octet cross-competition; binder on anti-hFc tip; 50 nM hActivin A pre-bound with 1 uM Control 3 (col 11); black box
Protocol: as §1

Activin A [16] = target: T1, Activin A; assay: Octet cross-competition; binder on anti-hFc tip; 50 nM hActivin A pre-bound with 1 uM H4H10423P (col 4); white box
Protocol: as §1

Activin A [17] = target: T1, Activin A; assay: Octet cross-competition; binder on anti-hFc tip; 50 nM hActivin A pre-bound with 1 uM H4H10440P2 (col 9); black box
Protocol: as §1

Activin A [18] = target: T1, Activin A; assay: Octet cross-competition; binder on anti-hFc tip; 50 nM hActivin A pre-bound with 1 uM H4H10423P (col 4); black box
Protocol: as §1

Activin A [19] = target: T1, Activin A; assay: SPR, captured mAb, 37C; no dissociation observed, kd fixed
Protocol: (§3) Antibody-antigen association was monitored for 240 seconds while dissociation in buffer was monitored for 600 seconds. Kinetic association and dissociation rate constants were determined by processing and fitting the data using Scrubber software version 2.0c. Binding equilibrium dissociation constants (KD) and dissociative half-lives (t_{1/2}) were then calculated from the kinetic rate constants as: KD (M)=kd/kₐ and t_{1/2} (min)=[ln 2/(60*kd)]. (NB=no binding observed under the conditions used; NT=not tested).

Activin A [20] = target: T1, Activin A; assay: SPR, captured mAb, 25C; no dissociation observed, kd fixed
Protocol: as §3

| Binder | binding response (Activin A [1]) | binding response (Activin A [2]) | 50 nM Ag Bound (RU) (Activin B [3]) | Activin A-20 nM (RU) (Activin A [4]) | Kd (Activin A [4]) | koff (Activin A [4]) | kon (Activin A [4]) | t1/2 (Activin A [4]) | binding response (Activin A [5]) | 50 nM Ag Bound (RU) (Activin B [6]) | Activin A-20 nM (RU) (Activin A [7]) | Kd (Activin A [7]) | kon (Activin A [7]) | t1/2 (Activin A [7]) | binding response (Activin A [10]) | binding response (Activin A [11]) | binding response (Activin A [12]) | binding response (Activin A [13]) | binding response (Activin A [14]) | binding response (Activin A [15]) | other results |
| --- | --- | --- | --- | --- | --- | --- | --- | --- | --- | --- | --- | --- | --- | --- | --- | --- | --- | --- | --- | --- | --- |
| B1 | 1.37 | 0.32 | 18.8 RU | 12.9 RU | 24.7 pM | 9.28e-05 s⁻¹ | 3.76e+06 M⁻¹ s⁻¹ | 2.08 h | 0.29 | 20.9 RU | 15.3 RU | 51.5 pM | 6.37e+06 M⁻¹ s⁻¹ | 0.587 h | 0.28 | 1.4 | 1.17 | 0.13 | 0.11 | -0.05 | Kd (Activin B [3]): 1090 pM; koff (Activin B [3]): 0.00116 s⁻¹; kon (Activin B [3]): 1.06e+06 M⁻¹ s⁻¹; t1/2 (Activin B [3]): 0.167 h; Kd (Activin B [6]): 3290 pM; koff (Activin B [6]): 0.00419 s⁻¹; kon (Activin B [6]): 1.28e+06 M⁻¹ s⁻¹; t1/2 (Activin B [6]): 2.8 min; koff (Activin A [7]): 0.000328 s⁻¹; binding response (Activin A [8]): 0.41; binding response (Activin A [9]): 0.27; binding response (Activin A [16]): 1.22 |
| B2 | 1.84 | 0.31 | 3.9 RU | 19.4 RU | 3.52 pM | 0.000167 s⁻¹ | 4.75e+07 M⁻¹ s⁻¹ | 1.15 h | – | 3.6 RU | 25 RU | 3.97 pM | 3.8e+07 M⁻¹ s⁻¹ | 1.27 h | 0.49 | 1.76 | 1.55 | 0.2 | 0.27 | -0.03 | binding response (Activin A [17]): 0.31; binding result (Activin B [6]): no binding (tested: 50 nM); koff (Activin A [7]): 0.000151 s⁻¹; binding response (Activin A [8]): 0.62; binding response (Activin A [9]): 0.26; binding response (Activin A [18]): 0.33 |
| B3 | 1.37 | 0.34 | 26.4 RU | 24.9 RU | 8.17 pM | 6.39e-05 s⁻¹ | 7.82e+06 M⁻¹ s⁻¹ | 3.01 h | 0.65 | 25.3 RU | 31.4 RU | ≤ 3.75 pM | 1.33e+07 M⁻¹ s⁻¹ | ≥ 3.85 h | 0.39 | 1.4 | 1.24 | 0.16 | 0.24 | -0.01 | binding response (Activin A [17]): 0.29; Kd (Activin B [3]): 3750 pM; koff (Activin B [3]): 0.0131 s⁻¹; kon (Activin B [3]): 3.49e+06 M⁻¹ s⁻¹; t1/2 (Activin B [3]): 0.015 h; Kd (Activin B [6]): 9980 pM; koff (Activin B [6]): 0.0343 s⁻¹; kon (Activin B [6]): 3.43e+06 M⁻¹ s⁻¹; t1/2 (Activin B [6]): 0.3 min; koff (Activin A [19]): ≤ 5e-05 s⁻¹; binding response (Activin A [9]): 0.26; binding response (Activin A [16]): 1.39 |
| B4 | 1.58 | 0.29 | 5.1 RU | 20.7 RU | ≤ 3.18 pM | – | 1.57e+07 M⁻¹ s⁻¹ | ≥ 3.85 h | 0.28 | 5.1 RU | 25.1 RU | ≤ 2.18 pM | 2.3e+07 M⁻¹ s⁻¹ | ≥ 3.85 h | 0.3 | 1.63 | 1.36 | 0.15 | 0.11 | -0.05 | binding response (Activin A [17]): 0.27; koff (Activin A [20]): ≤ 5e-05 s⁻¹; binding result (Activin B [3]): no binding (tested: 50 nM); koff (Activin A [19]): ≤ 5e-05 s⁻¹; binding response (Activin A [8]): 0.32; binding response (Activin A [16]): 1.32 |
